Laboratory results reported in US6562591.
Where a chain is given by its changes, count along the chain named.

B1: HA-Tnik(WT), full length human Tnik isoform 1 with N-terminal HA epitope tag (protein)
chain: AYPYDVPDYAMASDSPARSLDEIDLSALRDPAGIFELVELVGNGTYGQVYKGRHVKTGQLAAIKVMDVTGDEEEEIKQEINMLKKYSHHRNIATYYGAFIKKNPPGMDDQLWLVMEFCGAGSVTDLIKNTKGNTLKEEWIAYICREILRGLSHLHQHKVIHRDIKGQNVLLTENAEVKLVDFGVSAQLDRTVGRRNTFIGTPYWMAPEVIACDENPDATYDFKSDLWSLGITAIEMAEGAPPLCDMHPMRALFLIPRNPAPRLKSKKWSKKFQSFIESCLVKNHSQRPATEQLMKHPFIRDQPNERQVRIQLKDHIDRTKKKRGEKDETEYEYSGSEEEEEENDSGEPSSILNLPGESTLRRDFLRLQLANKERSEALRRQQLEQQQRENEEHKRQLLAERQKRIEEQKEQRRRLEEQQRREKELRKQQEREQRRHYEEQMRREEERRRAEHEQEYIRRQLEEEQRQLEILQQQLLHEQALLLEYKRKQLEEQRQAERLQRQLKQERDYLVSLQHQRQEQRPVEKKPLYHYKEGMSPSEKPAWAKEVEERSRLNRQSSPAMPHKVANRISDPNLPPRSESFSISGVQPARTPPMLRPVDPQIPHLVAVKSQGPALTASQSVHEQPTKGLSGFQEALNVTSHRVEMPRQNSDPTSENPPLPTRIEKFDRSSWLRQEEDIPPKVPQRTTSISPALARKNSPGNGSALGPRLGSQPIRASNPDLRRTEPILESPLQRTSSGSSSSSSTPSSQPSSQGGSQPGSQAGSSERTRVRANSKSEGSPVLPHEPAKVKPEESRDITRPSRPASYKKAIDEDLTALAKELRELRIEETNRPMKKVTDYSSSSEESESSEEEEEDGESETHDGTVAVSDIPRLIPTGAPGSNEQYNVGMVGTHGLETSHADSFSGSISREGTLMIRETSGEKKRSGHSDSNGFAGHINLPDLVQQSHSPAGTPTEGLGRVSTHSQEMDSGTEYGMGSSTKASFTPFVDPRVYQTSPTDEDEEDEESSAAALFTSELLRQEQAKLNEARKISVVNVNPTNIRPHSDTPEIRKYKKRFNSEILCAALWGVNLLVGTENGLMLLDRSGQGKVYNLINRRRFQQMDVLEGLNVLVTISGKKNKLRVYYLSWLRNRILHNDPEVEKKQGWITVGDLEGCIHYKVVKYERIKFLVIALKNAVEIYAWAPKPYHKFMAFKSFADLQHKPLLVDLTVEEGQRLKVIFGSHTGFHVIDVDSGNSYDIYIPSHIQGNITPHAIVILPKTDGMEMLVCYEDEGVYVNTYGRITKDVVLQWGEMPTSVAYIHSNQIMGWGEKAIEIRSVETGHLDGVFMHKRAQRLKFLCERNDKVFFASVRSGGSSQVFFMTLNRNSMMNW
B2: HA-Tnik(KM), kinase mutant form of Tnik with N-terminal HA epitope tag (protein)
chain: B1 chain with K64R

Target: Gelsolin (Sigma)

Protein	phosphorylation of Gelsolin in an in vitro kinase assay
B1	Wild type Tnik, but not the kinase mutant form of Tnik, phosphorylated Gelsolin in vitro
B2	Wild type Tnik, but not the kinase mutant form of Tnik, phosphorylated Gelsolin in vitro
